According to patent publication US20260274955A1 (JANUX THERAPEUTICS, published 2026):

Tests used:
[1] = biological target: T1, Anti-CD28 Fab (SEQ ID NOs: 202, 203); experiment: phage binding ELISA, Fab on plate;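 further: clonal phage supernatant ELISA, wells preincubated with CD28 antigen or blocking buffer only, then bound phage detected using HRP-linked anti-M13 antibody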
T1 construct: biotinylated and captured on neutravidin coated plates in the phage ELISA
Procedure: (§1) After panning, phage infected bacteria were plated out and colonies picked into 96 well blocks. Clonal phage was then amplified and separated from bacterial cells via centrifugation.
(§2) Clonal phage were harvested as crude supernatants and screened via standard ELISAs. […] Prior to the addition of clonal phage, wells were incubated with blocking buffer and CD28 antigen or blocking buffer alone. Without washing or aspirating, clonal phage supernatants were then added to the wells and incubated for a short time. Wells were then washed followed by detection of bound phage using a horse radish conjugated anti-M13 antibody. Clonal phage of interest were then sent for sequence analysis.

[2] = biological target: T1, Anti-CD28 Fab (SEQ ID NOs: 202, 203); experiment: phage binding ELISA, Fab on plate, CD28 as competitor
Procedure: as §1, §2

[3] = biological target: anti-CD28 Fab (SEQ ID NOs: 202, 203); experiment: phage ELISA, Fab on plate;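 further: ELISA of crude clonal phage supernatants on the plate, wells preloaded with CD28 antigen or only blocking buffer, captured phage read out via HRP-linked anti-M13 antibody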
Target sequence in this assay (VH, as listed by the source, chain 1 of 2): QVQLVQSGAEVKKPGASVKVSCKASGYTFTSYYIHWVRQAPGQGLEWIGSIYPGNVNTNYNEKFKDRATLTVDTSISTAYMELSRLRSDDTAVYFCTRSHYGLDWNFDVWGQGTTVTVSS
Target sequence in this assay (VL, as listed by the source, chain 2 of 2): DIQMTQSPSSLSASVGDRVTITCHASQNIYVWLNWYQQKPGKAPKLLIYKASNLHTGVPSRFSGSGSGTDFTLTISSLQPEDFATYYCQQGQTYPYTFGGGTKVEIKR
Procedure: as §1, §2

[4] = biological target: anti-CD28 Fab (SEQ ID NOs: 202, 203); experiment: phage ELISA, Fab on plate, CD28 antigen as competitor;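 further: wells pre-incubated with CD28 antigen in blocking buffer (reference: blocking buffer only) before adding crude clonal phage supernatant, bound phage read with HRP-coupled anti-M13 antibody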
Target sequence in this assay (VH, as listed by the source, chain 1 of 2): as the sequence (VH, as listed by the source, chain 1 of 2) above
Target sequence in this assay (VL, as listed by the source, chain 2 of 2): as the sequence (VL, as listed by the source, chain 2 of 2) above
Procedure: as §1, §2

[5] = biological target: anti-CD28 Fab (SEQ ID NOs: 202, 203); experiment: phage binding ELISA; biotinylated anti-CD28 Fab captured on neutravidin plate, clonal phage supernatant, anti-M13-HRP detection;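 further: before crude clonal phage supernatants were added, wells were preincubated with CD28 antigen in blocking buffer or with blocking buffer only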
Target sequence in this assay (VH, as listed by the source, chain 1 of 2): as the sequence (VH, as listed by the source, chain 1 of 2) above
Target sequence in this assay (VL, as listed by the source, chain 2 of 2): as the sequence (VL, as listed by the source, chain 2 of 2) above
Procedure: as §1, §2

T1 sequence (VH, as listed by the source, chain 1 of 2): as the sequence (VH, as listed by the source, chain 1 of 2) above
T1 sequence (VL, as listed by the source, chain 2 of 2): as the sequence (VL, as listed by the source, chain 2 of 2) above

| Binder | Anti-CD28 Fab (SEQ ID NOs: 202, 203) signal [1] | Anti-CD28 Fab signal in the presence of CD28 [2] | Anti-CD28 Fab signal [3] | Anti-CD28 Fab signal in the presence of CD28 [4] | Anti-CD28 Fab (SEQ ID NOs: 202, 203) signal [5] |
| --- | --- | --- | --- | --- | --- |
| SCAAVFSFPWSPCL [Phage-999] | 1.87 | 0.08 |  |  |  |
| TCSAGAYYAWPVCL [Phage-1004] | 1.84 | 0.08 |  |  |  |
| MCSAGAMYPWPLCL [Phage-988] | 1.93 | 0.07 |  |  |  |
| LCSAGAMYPWPLCY [Phage-1051] | 1.66 | 0.08 |  |  |  |
| TCSAGAHYVWPMCF [Phage-994] | 1.91 | 0.17 |  |  |  |
| SCSAGATWAWPQCF [Phage-1194] |  |  | 1.19 | 0.08 |  |
| TCSAGATYIWPMCF [Phage-995] | 1.9 | 0.08 |  |  |  |
| TCAAGANYSWPACL [Phage-1199] |  |  | 1.14 | 0.08 |  |
| LCAAVFAYTWPMCF [Phage-1220] |  |  |  |  | 0.98 |
| TCSAGATWPWPICL [Phage-997] | 1.89 | 0.08 |  |  |  |
| TCRAGATYNWPFCL [Phage-996] | 1.9 | 0.07 |  |  |  |
| QCAAGASYPWPVCL [Phage-1008] | 1.82 | 0.07 |  |  |  |
| TCSAGFSYSWPACF [Phage-1000] | 1.86 | 0.07 |  |  |  |
| TCAAGAMWQWPVCL [Phage-1010] | 1.81 | 0.06 |  |  |  |
| LCRAGAMWPWPTCL [Phage-1005] | 1.83 | 0.06 |  |  |  |
| SCAAGATYTWPMCI [Phage-1054] | 1.66 | 0.07 |  |  |  |
| SCSAGASLQLSICL [Phage-992] | 1.92 | 0.06 |  |  |  |
| TCSAGAHFAWPMCF [Phage-1045] | 1.69 | 0.07 |  |  |  |
| PCSAGATYAWLYCV [Phage-1011] | 1.81 | 0.06 |  |  |  |
| SCAAGLSYPWPDCL [Phage-1055] | 1.65 | 0.07 |  |  |  |
| LCAAGANYPWPACL [Phage-1053] | 1.66 | 0.07 |  |  |  |
| TCSAGAHWTWPLCF [Phage-1044] | 1.69 | 0.06 |  |  |  |
| LCKPGVPYQWPTCF [Phage-1009] | 1.82 | 0.05 |  |  |  |
| TCSAGASYPWPVCL [Phage-1048] | 1.67 | 0.07 |  |  |  |
| SCADGFNYVWPLCF [Phage-1198] |  |  | 1.14 | 0.08 |  |
| SCSAGAGWAWPMCF [Phage-1196] |  |  | 1.16 | 0.08 |  |

| Binder | Anti-CD28 Fab (SEQ ID NOs: 202, 203) signal [1] | Anti-CD28 Fab signal in the presence of CD28 [2] | Anti-CD28 Fab signal [3] | Anti-CD28 Fab signal in the presence of CD28 [4] | Anti-CD28 Fab (SEQ ID NOs: 202, 203) signal [5] |
| --- | --- | --- | --- | --- | --- |
| TCAAGASYPWPACL [Phage-998] | 1.89 | 0.09 |  |  |  |
| TCSAGAHYEWPYCL [Phage-1007] | 1.82 | 0.11 |  |  |  |
| TCSAGAGYPWPLCY [Phage-991] | 1.92 | 0.08 |  |  |  |
| TCSAGAHYPWPDCI [Phage-985] | 1.95 | 0.07 |  |  |  |
| TCSAGATYSWPQCL [Phage-1003] | 1.84 | 0.07 |  |  |  |
| LCNAGAMYKWPTCL [Phage-987] | 1.94 | 0.06 |  |  |  |
| LCNAGAPYKWPTCL [Phage-1050] | 1.66 | 0.07 |  |  |  |
| SCAAGAAYPWPACL [Phage-1013] | 1.8 | 0.06 |  |  |  |
| TCAAGAGWAWPFCF [Phage-1056] | 1.65 | 0.09 |  |  |  |
| RCAAGVMYDWPVCL [Phage-1043] | 1.7 | 0.07 |  |  |  |
| WCAAGAMYPWPLCL [Phage-1049] | 1.67 | 0.06 |  |  |  |
| LCKPGVPNSWPTCL [Phage-984] | 1.95 | 0.06 |  |  |  |
| TCSAGATYNWPWCF [Phage-1047] | 1.68 | 0.05 |  |  |  |
| LCSAGAMYPWPVCL [Phage-1193] |  |  | 1.19 | 0.08 |  |
| TCSAGATWAWPSCF [Phage-993] | 1.92 | 0.1 |  |  |  |
| TCTAGFSYNWPMCF [Phage-1001] | 1.85 | 0.06 |  |  |  |
| TCSAGATFHWPQCF [Phage-1006] | 1.83 | 0.08 |  |  |  |
| TCSAGAMWTWPYCF [Phage-989] | 1.93 | 0.08 |  |  |  |
| SCAAGAHYVWPFCF [Phage-1046] | 1.68 | 0.08 |  |  |  |
| SCAAGFDYGWPMCL [Phage-1197] |  |  | 1.16 | 0.06 |  |
| TCAAGAYWTWPACF [Phage-990] | 1.93 | 0.09 |  |  |  |
| TCAAGAMWVWPTCL [Phage-1052] | 1.66 | 0.07 |  |  |  |
| SCSAVFSYRWPKCL [Phage-1195] |  |  | 1.18 | 0.06 |  |
| PCAAGAHYVWPVCF [Phage-1221] |  |  |  |  | 0.97 |
| TCSAGATYAWPACY [Phage-1002] | 1.84 | 0.14 |  |  |  |
